According to FireProtDB (doi:10.1007/s00792-015-0748-z):

B1: L-asparaginase, Q8TZE8 (parent)
chain: MKILLIGMGGTIASVKGENGYEASLSVKEVLDIAGIKDCEDCDFLDLKNVDSTLIQPEDWVDLAETLYKNVKKYDGIIVTHGTDTLAYTSSMISFMLRNPPIPIVFTGSMIPATEENSDAPLNLQTAIKFATSGIRGVYVAFNGKVMLGVRTSKVRTMSRDAFESINYPIIAELRGEDLVVNFIPKFNNGEVTLDLRHDPKVLVIKLIPGLSGDIFRAAVELGYRGIVIEGYGAGGIPYRGSDLLQTIEELSKEIPIVMTTQAMYDGVDLTRYKVGRLALRAGVIPAGDMTKEATVTKLMWILGHTNNVEEIKVLMRKNLVGELRD

Variants of: B1
Details: Pyrococcus furiosus (strain ATCC 43587 / DSM 3638 / JCM 8422 / Vc1); pH 8; 60 °C; GdnHCl; Fluorescence; Tris; NaCl; transition: 2; reversible: yes; structure 4Q0M; whole UniProt chain shown

| Variant | ddG of mutation (higher = less stable) | denaturant m value | denaturant midpoint (higher = more stable) | unfolding free energy |
| --- | --- | --- | --- | --- |
| MKILLIGMGGTIASVKGENGYEASLSVKEVLDIAGIKDCEDCDFLDLKNVDSTLIQPEDWVDLAETLYKNVKKYDGIIVTHGTDTLAYTSSMISFMLRNPPIPIVFTGSMIPATEENSDAPLNLQTAIKFATSGIRGVYVAFNGKVMLGVRTSKVRTMSRDAFESINYPIIAELRGEDLVVNFIPKFNNGEVTLDLRHDPKVLVIKLIPGLSGDIFRAAVELGYRGIVIEGYGAGGIPYRGSDLLQTIEELSKEIPIVMTTQAMYDGVDLTRYKVGRLALRAGVIPAGDMTKEATVTKLMFILGHTNNVEEIKVLMRKNLVGELRD [W301F] | -3.98 kcal/mol | 6.21 kcal/mol/M | 3.18 M | 19.7 kcal/mol |
| MKILLIGMGGTIASVKGENGYEASLSVKEVLDIAGIKDCEDCDFLDLKNVDSTLIQPEDFVDLAETLYKNVKKYDGIIVTHGTDTLAYTSSMISFMLRNPPIPIVFTGSMIPATEENSDAPLNLQTAIKFATSGIRGVYVAFNGKVMLGVRTSKVRTMSRDAFESINYPIIAELRGEDLVVNFIPKFNNGEVTLDLRHDPKVLVIKLIPGLSGDIFRAAVELGYRGIVIEGYGAGGIPYRGSDLLQTIEELSKEIPIVMTTQAMYDGVDLTRYKVGRLALRAGVIPAGDMTKEATVTKLMWILGHTNNVEEIKVLMRKNLVGELRD [W60F] |  | 4.23 kcal/mol/M | 2.82 M | 11.9 kcal/mol |
